Biological target: IssA (iron-sulfur storage protein A), native thioferrate-bound nanoparticle form from Pyrococcus furiosus (Pyrococcus furiosus)
Assay: negative stain TEM; purified native IssA, untreated (20-300 nm) and after 3 M guanidinium chloride, 0.5 mM EDTA, 25 mM DTT (16-22 nm spheres); composition estimated from the volume of a 20 nm sphere, densities and the Fe:protein ratio

Work on “IssA (iron-sulfur storage protein A), native thioferrate-bound nanoparticle form from Pyrococcus furiosus (natural protein)” yielded a stoichiometry N of 170.
